Numbered stars: 1 amine (or outer) side, 2 acyl side, 3 side chain; on linkers, the order of the positions; unused ones are H or OH. Bridge positions count the residues as written; N and C are the ends. Side chains are listed from the residue outwards. Ends that are not written are not given here. * marks the point of attachment. C20 diacid = O=C(O)CCCCCCCCCCCCCCCCCCC(=O)*; γGlu = O=C(O)[C@H](CCC(=O)[*:2])N[*:1]; AEEA = NCCOCCOCC(=O)O
T1: human calcitonin receptor (human, UniProt P30988 25-474)
T1 sequence (looked up): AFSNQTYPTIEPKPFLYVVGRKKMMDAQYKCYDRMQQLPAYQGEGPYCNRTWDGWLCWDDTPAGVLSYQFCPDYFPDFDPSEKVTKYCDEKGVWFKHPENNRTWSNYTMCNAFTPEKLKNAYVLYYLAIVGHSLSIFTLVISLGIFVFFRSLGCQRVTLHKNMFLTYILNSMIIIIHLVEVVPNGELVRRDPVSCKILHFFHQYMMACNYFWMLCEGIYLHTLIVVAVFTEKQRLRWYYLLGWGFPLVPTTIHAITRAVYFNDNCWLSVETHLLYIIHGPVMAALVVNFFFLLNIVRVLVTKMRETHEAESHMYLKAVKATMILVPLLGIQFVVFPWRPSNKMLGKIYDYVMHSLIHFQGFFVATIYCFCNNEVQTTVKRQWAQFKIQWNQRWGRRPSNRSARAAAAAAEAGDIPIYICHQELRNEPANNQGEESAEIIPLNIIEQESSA

T2: human amylin receptor (amylin 3(a) receptor: human calcitonin receptor with RAMP-3) (human, UniProt P30988 25-474; O60896 24-148, limits assumed)
T2 construct: whole, on cells; Whole cells in the luciferase assay (Assay II a); also called hAmylin-R; hAmylinR
T2 sequence (looked up) 1: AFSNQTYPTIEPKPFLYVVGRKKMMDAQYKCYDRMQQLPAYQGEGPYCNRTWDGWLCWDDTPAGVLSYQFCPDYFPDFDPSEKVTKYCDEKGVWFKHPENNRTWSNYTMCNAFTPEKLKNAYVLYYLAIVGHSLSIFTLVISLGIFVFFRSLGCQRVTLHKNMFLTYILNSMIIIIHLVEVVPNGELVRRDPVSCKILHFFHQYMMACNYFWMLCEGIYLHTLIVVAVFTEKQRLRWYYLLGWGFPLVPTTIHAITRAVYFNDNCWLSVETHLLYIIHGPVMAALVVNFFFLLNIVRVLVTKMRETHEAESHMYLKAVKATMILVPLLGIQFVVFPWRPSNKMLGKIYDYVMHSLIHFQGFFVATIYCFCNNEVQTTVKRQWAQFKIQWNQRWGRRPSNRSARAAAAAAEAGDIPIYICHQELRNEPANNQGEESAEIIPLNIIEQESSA
T2 sequence (looked up) 2: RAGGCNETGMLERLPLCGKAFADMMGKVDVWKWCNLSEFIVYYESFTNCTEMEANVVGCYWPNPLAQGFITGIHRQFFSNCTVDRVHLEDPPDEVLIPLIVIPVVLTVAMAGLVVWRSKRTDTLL

T3: human amylin receptor (human, UniProt P30988 25-474; O60896 24-148, limits assumed)
T3 construct: whole, on cells; Used as cell membranes prepared from the Amylin 3(a)/CRE-luc BHK cells (Assay V); also called hAmylin-R; hAmylinR
T3 sequence (looked up) 1: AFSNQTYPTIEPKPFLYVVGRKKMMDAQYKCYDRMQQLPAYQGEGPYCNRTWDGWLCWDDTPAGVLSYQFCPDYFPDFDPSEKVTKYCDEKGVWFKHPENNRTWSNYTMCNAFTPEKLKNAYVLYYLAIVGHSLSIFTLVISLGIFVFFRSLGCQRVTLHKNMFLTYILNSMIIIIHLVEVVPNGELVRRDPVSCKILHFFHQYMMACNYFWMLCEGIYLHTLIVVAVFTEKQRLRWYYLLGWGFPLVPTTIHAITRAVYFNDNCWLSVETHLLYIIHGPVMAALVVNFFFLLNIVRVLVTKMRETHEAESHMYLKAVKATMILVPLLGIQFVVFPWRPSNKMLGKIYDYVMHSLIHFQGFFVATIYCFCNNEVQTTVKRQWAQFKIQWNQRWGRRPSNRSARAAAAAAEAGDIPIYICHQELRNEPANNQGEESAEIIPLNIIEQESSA
T3 sequence (looked up) 2: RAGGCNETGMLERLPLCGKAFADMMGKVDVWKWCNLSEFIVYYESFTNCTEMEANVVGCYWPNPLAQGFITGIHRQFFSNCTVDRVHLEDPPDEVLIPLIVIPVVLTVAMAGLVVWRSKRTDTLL


What was measured:
[1] = target: T1, human calcitonin receptor; assay: cell-based or functional assay
[2] = target: T2, human amylin receptor (amylin 3(a) …); assay: SPA competition binding on membranes of BHK cells with human calcitonin receptor + RAMP-3; displacement of 125I-rat amylin (Assay V)
Procedure: The binding assay was performed using scintillation proximity assay (SPA) beads (RPNQ0001) from PerkinElmer and cell membranes from the Amylin 3(a)/CRE-luc cells (as described in Assay (II)) were used. Membranes were prepared in the following way; the cells were rinsed with PBS and incubated with Versene for approximately 5 min before harvesting. The cells were flushed with PBS and the cell-suspension was centrifuged for 5 min at 1000 rpm. Cells were homogenized (ultrathurrax) in a buffer containing 20 mM Na-HEPES and 10 mM EDTA (pH 7.4) and centrifuged at 20.000 rpm for 15 min. The resulting pellet was resuspended, homogenized and centrifuged (20.000 rpm, 15 min) in a buffer containing 20 mM Na-HEPES and 0.1 mM EDTA (pH 7.4, buffer 2). The resulting pellet was resuspended in buffer 2 and protein concentration was measured (BCA protein Assay, Pierce). The homogenate was kept cold during the whole procedure. The membranes were kept at −80° C. until use. The assay was performed in a 384 well Optiplate (PerkinElmer) in a total volume of 40 ul. Membranes were mixed with SPA beads. Final concentration of membranes 35 ng/μL final and SPA beads was 0.05 mg/well. Test-compounds were dissolved in DMSO and further diluted in assay buffer (50 mM Hepes, pH 7.4, 1 mM CaCl2, 5 mM MgCl₂, 0.1% OA and 0.02% Tween20). […] The final mixture was incubated with shaking at 400 rpm for 120 min at 25° C. prior to centrifugation (1500 rpm, 10 min). Samples were analyzed on TopCounter™ (Packard). The IC₅₀ was calculated using (one site binding competition analysis) GraphPad Prism5 as a measure of receptor affinity.

human amylin receptor = target: T3, human amylin receptor; assay: SPA competition vs 125I-rat amylin, membranes of amylin 3(a) receptor BHK cells (Assay V)
Summary of the method: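 Cell membranes were prepared by homogenisation in Na-HEPES/EDTA buffer, pH 7.4, and stored at −80° C. They were then coupled to SPA beads at 35 ng/μL final and exposed to compounds in assay buffer containing CaCl2, MgCl₂, OA and Tween20. After 120 min at 25° C, plates were counted and IC₅₀ derived.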

Ratio hCT/hAmylin funct. [1] [ratio] | IC50 [2] [nM] | IC50 (human amylin receptor) [nM] | Binder
3.6 | 0.217 |  | {C20 diacid-γGlu-AEEA-AEEA}-KCNTATCATQRLAEFLRHSSPNFGAIPSSTNVGSNTP-NH2 (disulfide 2-7; SMILES CC[C@H](C)[C@H](NC(=O)[C@H](C)NC(=O)CNC(=O)[C@H](Cc1ccccc1)NC(=O)[C@H](CC(N)=O)NC(=O)[C@@H]1CCCN1C(=O)[C@H](CO)NC(=O)[C@H](CO)NC(=O)[C@H](Cc1c[nH]cn1)NC(=O)[C@H](CCCNC(=N)N)NC(=O)[C@H](CC(C)C)NC(=O)[C@H](Cc1ccccc1)NC(=O)[C@H](CCC(=O)O)NC(=O)[C@H](C)NC(=O)[C@H](CC(C)C)NC(=O)[C@H](CCCNC(=N)N)NC(=O)[C@H](CCC(N)=O)NC(=O)[C@@H](NC(=O)[C@H](C)NC(=O)[C@@H]1CSSC[C@H](NC(=O)[C@H](CCCCN)NC(=O)COCCOCCNC(=O)COCCOCCNC(=O)CC[C@H](NC(=O)CCCCCCCCCCCCCCCCCCC(=O)O)C(=O)O)C(=O)N[C@@H](CC(N)=O)C(=O)N[C@@H]([C@@H](C)O)C(=O)N[C@@H](C)C(=O)N[C@@H]([C@@H](C)O)C(=O)N1)[C@@H](C)O)C(=O)N1CCC[C@H]1C(=O)N[C@@H](CO)C(=O)N[C@@H](CO)C(=O)N[C@H](C(=O)N[C@@H](CC(N)=O)C(=O)N[C@H](C(=O)NCC(=O)N[C@@H](CO)C(=O)N[C@@H](CC(N)=O)C(=O)N[C@H](C(=O)N1CCC[C@H]1C(N)=O)[C@@H](C)O)C(C)C)[C@@H](C)O, also called compound 20)
1 | 0.082 |  | {C20 diacid-γGlu}-KCNTATCATQRLADFLRHSSPNFGAIPSSTNVGSNTP-NH2 (disulfide 2-7; SMILES CC[C@H](C)[C@H](NC(=O)[C@H](C)NC(=O)CNC(=O)[C@H](Cc1ccccc1)NC(=O)[C@H](CC(N)=O)NC(=O)[C@@H]1CCCN1C(=O)[C@H](CO)NC(=O)[C@H](CO)NC(=O)[C@H](Cc1c[nH]cn1)NC(=O)[C@H](CCCNC(=N)N)NC(=O)[C@H](CC(C)C)NC(=O)[C@H](Cc1ccccc1)NC(=O)[C@H](CC(=O)O)NC(=O)[C@H](C)NC(=O)[C@H](CC(C)C)NC(=O)[C@H](CCCNC(=N)N)NC(=O)[C@H](CCC(N)=O)NC(=O)[C@@H](NC(=O)[C@H](C)NC(=O)[C@@H]1CSSC[C@H](NC(=O)[C@H](CCCCN)NC(=O)CC[C@H](NC(=O)CCCCCCCCCCCCCCCCCCC(=O)O)C(=O)O)C(=O)N[C@@H](CC(N)=O)C(=O)N[C@@H]([C@@H](C)O)C(=O)N[C@@H](C)C(=O)N[C@@H]([C@@H](C)O)C(=O)N1)[C@@H](C)O)C(=O)N1CCC[C@H]1C(=O)N[C@@H](CO)C(=O)N[C@@H](CO)C(=O)N[C@H](C(=O)N[C@@H](CC(N)=O)C(=O)N[C@H](C(=O)NCC(=O)N[C@@H](CO)C(=O)N[C@@H](CC(N)=O)C(=O)N[C@H](C(=O)N1CCC[C@H]1C(N)=O)[C@@H](C)O)C(C)C)[C@@H](C)O, also called compound 10)
4.8 | 0.554 |  | {C20 diacid-γGlu}-KCNTATCATQRLAEFLRHSSPNFGAIPSSTNVGSHTY-NH2 (disulfide 2-7; SMILES CC[C@H](C)[C@H](NC(=O)[C@H](C)NC(=O)CNC(=O)[C@H](Cc1ccccc1)NC(=O)[C@H](CC(N)=O)NC(=O)[C@@H]1CCCN1C(=O)[C@H](CO)NC(=O)[C@H](CO)NC(=O)[C@H](Cc1c[nH]cn1)NC(=O)[C@H](CCCNC(=N)N)NC(=O)[C@H](CC(C)C)NC(=O)[C@H](Cc1ccccc1)NC(=O)[C@H](CCC(=O)O)NC(=O)[C@H](C)NC(=O)[C@H](CC(C)C)NC(=O)[C@H](CCCNC(=N)N)NC(=O)[C@H](CCC(N)=O)NC(=O)[C@@H](NC(=O)[C@H](C)NC(=O)[C@@H]1CSSC[C@H](NC(=O)[C@H](CCCCN)NC(=O)CC[C@H](NC(=O)CCCCCCCCCCCCCCCCCCC(=O)O)C(=O)O)C(=O)N[C@@H](CC(N)=O)C(=O)N[C@@H]([C@@H](C)O)C(=O)N[C@@H](C)C(=O)N[C@@H]([C@@H](C)O)C(=O)N1)[C@@H](C)O)C(=O)N1CCC[C@H]1C(=O)N[C@@H](CO)C(=O)N[C@@H](CO)C(=O)N[C@H](C(=O)N[C@@H](CC(N)=O)C(=O)N[C@H](C(=O)NCC(=O)N[C@@H](CO)C(=O)N[C@@H](Cc1c[nH]cn1)C(=O)N[C@H](C(=O)N[C@@H](Cc1ccc(O)cc1)C(N)=O)[C@@H](C)O)C(C)C)[C@@H](C)O, also called compound 18)
0.9 | 0.105 |  | {C20 diacid-γGlu}-KCNTATCATQRLAEFLRHSSPNFGAIPSSTNVGSDTP-NH2 (disulfide 2-7; SMILES CC[C@H](C)[C@H](NC(=O)[C@H](C)NC(=O)CNC(=O)[C@H](Cc1ccccc1)NC(=O)[C@H](CC(N)=O)NC(=O)[C@@H]1CCCN1C(=O)[C@H](CO)NC(=O)[C@H](CO)NC(=O)[C@H](Cc1c[nH]cn1)NC(=O)[C@H](CCCNC(=N)N)NC(=O)[C@H](CC(C)C)NC(=O)[C@H](Cc1ccccc1)NC(=O)[C@H](CCC(=O)O)NC(=O)[C@H](C)NC(=O)[C@H](CC(C)C)NC(=O)[C@H](CCCNC(=N)N)NC(=O)[C@H](CCC(N)=O)NC(=O)[C@@H](NC(=O)[C@H](C)NC(=O)[C@@H]1CSSC[C@H](NC(=O)[C@H](CCCCN)NC(=O)CC[C@H](NC(=O)CCCCCCCCCCCCCCCCCCC(=O)O)C(=O)O)C(=O)N[C@@H](CC(N)=O)C(=O)N[C@@H]([C@@H](C)O)C(=O)N[C@@H](C)C(=O)N[C@@H]([C@@H](C)O)C(=O)N1)[C@@H](C)O)C(=O)N1CCC[C@H]1C(=O)N[C@@H](CO)C(=O)N[C@@H](CO)C(=O)N[C@H](C(=O)N[C@@H](CC(N)=O)C(=O)N[C@H](C(=O)NCC(=O)N[C@@H](CO)C(=O)N[C@@H](CC(=O)O)C(=O)N[C@H](C(=O)N1CCC[C@H]1C(N)=O)[C@@H](C)O)C(C)C)[C@@H](C)O, also called compound 11)
 |  | 0.275 | K([γGlu-C20 diacid])RCNTATCATQRLANFLRHSSPNFGAIPSSTNVGSHTY-NH2 (disulfide 3-8; N-terminus assumed; SMILES CC[C@H](C)[C@H](NC(=O)[C@H](C)NC(=O)CNC(=O)[C@H](Cc1ccccc1)NC(=O)[C@H](CC(N)=O)NC(=O)[C@@H]1CCCN1C(=O)[C@H](CO)NC(=O)[C@H](CO)NC(=O)[C@H](Cc1c[nH]cn1)NC(=O)[C@H](CCCNC(=N)N)NC(=O)[C@H](CC(C)C)NC(=O)[C@H](Cc1ccccc1)NC(=O)[C@H](CC(N)=O)NC(=O)[C@H](C)NC(=O)[C@H](CC(C)C)NC(=O)[C@H](CCCNC(=N)N)NC(=O)[C@H](CCC(N)=O)NC(=O)[C@@H](NC(=O)[C@H](C)NC(=O)[C@@H]1CSSC[C@H](NC(=O)[C@H](CCCNC(=N)N)NC(=O)[C@@H](N)CCCCNC(=O)CC[C@H](NC(=O)CCCCCCCCCCCCCCCCCCC(=O)O)C(=O)O)C(=O)N[C@@H](CC(N)=O)C(=O)N[C@@H]([C@@H](C)O)C(=O)N[C@@H](C)C(=O)N[C@@H]([C@@H](C)O)C(=O)N1)[C@@H](C)O)C(=O)N1CCC[C@H]1C(=O)N[C@@H](CO)C(=O)N[C@@H](CO)C(=O)N[C@H](C(=O)N[C@@H](CC(N)=O)C(=O)N[C@H](C(=O)NCC(=O)N[C@@H](CO)C(=O)N[C@@H](Cc1c[nH]cn1)C(=O)N[C@H](C(=O)N[C@@H](Cc1ccc(O)cc1)C(N)=O)[C@@H](C)O)C(C)C)[C@@H](C)O, also called compound 44)

From patent US20140087995A1 (published 2014)
